The numbers were not newly measured in article PMC5493423, which cites them from elsewhere.

For orientation: Kd means the free concentration of one partner at which half of the binding sites on the other are occupied at equilibrium, for simple one-to-one binding.

The data set concerns CD31 (protein used for the reported Kd). The settings on record: biotin; PBMCs at 1e7 cells/ml, 100 ul, aptamer 30 min at 4 C, then flow cytometry staining buffer; column in APTSCI binding buffer (composition not given).

Consider “CD31 aptamer, biotinylated (APTSCI CD31-2196BCI)”, for which the dissociation constant (Kd) was 1.14 nM.
